Measured values taken from US20030022355A1.

Biological target: fiber receptor (cellular receptor for wild-type adenoviral fiber protein)
Experiment: competition on A549 cells; labelled competitor GV10 UTV; soluble fiber at 0 to about 10 ug/ml

soluble wild-type fiber protein
percent of GV10 UTV binding inhibited: 40%
